Reference: US20030119023, “Nucleic acid binding polypeptides characterized by flexible linkers connected nucleic acid binding modules” (published 2003)

Legend:
[1] = molecular target: 2x3F pep11-9 (artificial); assay: in vitro fluorescence ELISA, values in figure only; conditions: label: biotin
Procedure: (§1) Incubations are performed at room temperature for 40 minutes. Black streptavidin-coated wells are blocked with 4% marvel for 1 hour. Binding reactions are added to the streptavidin-coated wells and incubated for a further 40 minutes at room temperature. Wells are washed 5 times in 100 μl wash buffer (1×PBS (pH 7.0), […] ZnCl₂, 0.01 mg/ml BSA, and 0.5% Tween 20), and finally 50 μl QuantaBlu peroxidase substrate solution (Pierce) is added to detect bound HA-tagged zinc finger peptide. ELISA signals are read in a SPECTRAmax GeminiXS spectrophotometer (Molecular Devices) and analysed using SOFTmax Pro 3.1.2 (Molecular Devices).
(§2) To compare the specificity of the 2x3F pep11-9 and 3x2F pep11-9 peptides, samples from the same translation reaction are assayed against each of the binding sites above. The ELISA signals obtained from each assay are then normalised relative to the maximum signal obtained for that peptide. (In this way the absolute amount of either peptide produced by the in vitro transcription/translation system is insignificant).

[2] = molecular target: 3x2F pep11-9 (artificial); assay: in vitro fluorescence ELISA, values in figure only; conditions: label: biotin
3x2F pep11-9 (artificial), sequence (chain, as listed by the source): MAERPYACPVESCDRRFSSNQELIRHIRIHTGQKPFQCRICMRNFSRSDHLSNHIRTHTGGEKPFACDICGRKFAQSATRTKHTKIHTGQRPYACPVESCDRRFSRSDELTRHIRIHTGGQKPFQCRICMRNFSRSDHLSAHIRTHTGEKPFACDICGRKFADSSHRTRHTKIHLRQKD
Procedure: as §1, §2

2x3F pep11-9 (artificial), sequence (chain, as listed by the source): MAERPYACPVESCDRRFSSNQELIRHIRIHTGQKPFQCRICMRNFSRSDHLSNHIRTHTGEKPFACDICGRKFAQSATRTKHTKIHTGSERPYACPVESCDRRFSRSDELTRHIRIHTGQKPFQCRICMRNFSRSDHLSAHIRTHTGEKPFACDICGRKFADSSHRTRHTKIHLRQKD

B1: 11-9 (dsDNA)
DNA 1: GGCCAGGCGGCAGGGGTT
DNA 2: AACCCCTGCCGCCTGGCC
Which results are given for B1?
binding result [1]: binds; binding result [2]: binds
